Non-standard residues stand in square brackets, D forms with d. Residues, ends and D or L forms follow the SMILES beside them. *: point of attachment. PhAc = O=C(Cc1ccccc1)*
What was measured:
NTR1 [1] = biological target: T1, NTR1 (Homo sapiens, UniProt P30989); experiment: ^125I-NT binding to isolated PC3 cell membranes; set-up: Ab-NTR1 detected two major bands in extracts of PC3 cells, the parent protein of 50 kDa; endogenous in cells; host or cells: PC3 cells (ATCC)
5-LOX = biological target: T2, 5-LOX (Homo sapiens, UniProt P09917); settings: range of reported values, various blood cell systems; cited from earlier work
T2 sequence (P09917 1-674): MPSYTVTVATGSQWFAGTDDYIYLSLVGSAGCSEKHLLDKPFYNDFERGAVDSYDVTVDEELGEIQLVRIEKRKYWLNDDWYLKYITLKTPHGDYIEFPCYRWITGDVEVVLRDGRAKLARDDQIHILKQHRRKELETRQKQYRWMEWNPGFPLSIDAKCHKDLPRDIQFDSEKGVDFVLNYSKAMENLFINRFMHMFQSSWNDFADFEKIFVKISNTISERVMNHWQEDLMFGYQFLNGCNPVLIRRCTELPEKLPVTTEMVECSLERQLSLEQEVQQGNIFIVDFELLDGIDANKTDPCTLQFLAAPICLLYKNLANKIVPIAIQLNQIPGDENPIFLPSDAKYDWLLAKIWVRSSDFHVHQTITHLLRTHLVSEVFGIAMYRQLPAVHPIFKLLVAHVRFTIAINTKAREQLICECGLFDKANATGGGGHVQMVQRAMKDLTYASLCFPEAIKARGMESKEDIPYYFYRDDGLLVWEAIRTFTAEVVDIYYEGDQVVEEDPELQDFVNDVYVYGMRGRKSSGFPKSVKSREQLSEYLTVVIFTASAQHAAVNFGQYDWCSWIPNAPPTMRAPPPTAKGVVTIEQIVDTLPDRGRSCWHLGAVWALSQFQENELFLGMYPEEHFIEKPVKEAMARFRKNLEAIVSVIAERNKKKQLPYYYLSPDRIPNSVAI

bombesin receptor = biological target: T3, bombesin receptor (Homo sapiens, UniProt P30550); experiment: ^125I-[Nle^14]-bombesin binding to PC3 cells; settings: 37° C.
T3 construct: endogenous in cells; host or cells: PC3 cells (ATCC)
T3 sequence (P30550 whole entry): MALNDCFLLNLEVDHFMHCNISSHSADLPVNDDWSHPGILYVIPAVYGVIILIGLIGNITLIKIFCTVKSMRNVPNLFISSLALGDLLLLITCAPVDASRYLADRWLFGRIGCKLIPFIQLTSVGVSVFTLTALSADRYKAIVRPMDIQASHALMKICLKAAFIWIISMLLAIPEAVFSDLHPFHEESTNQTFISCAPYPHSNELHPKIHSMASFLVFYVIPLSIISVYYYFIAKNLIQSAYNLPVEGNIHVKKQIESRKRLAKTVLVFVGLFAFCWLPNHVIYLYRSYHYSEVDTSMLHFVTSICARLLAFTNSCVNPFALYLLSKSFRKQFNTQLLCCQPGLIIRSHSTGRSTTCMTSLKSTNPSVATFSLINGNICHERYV

NTR1 [2] = biological target: T1, NTR1; experiment: ^125I-NT binding to PC3 cells; settings: LOX blockers
[3] = biological target: T4, vasopressin (V1a) receptor (Homo sapiens, UniProt P37288); experiment: ^125I-HOLVA binding to PC3 cells
T4 construct: endogenous in cells; host or cells: PC3 cells (ATCC)
T4 sequence (P37288 whole entry): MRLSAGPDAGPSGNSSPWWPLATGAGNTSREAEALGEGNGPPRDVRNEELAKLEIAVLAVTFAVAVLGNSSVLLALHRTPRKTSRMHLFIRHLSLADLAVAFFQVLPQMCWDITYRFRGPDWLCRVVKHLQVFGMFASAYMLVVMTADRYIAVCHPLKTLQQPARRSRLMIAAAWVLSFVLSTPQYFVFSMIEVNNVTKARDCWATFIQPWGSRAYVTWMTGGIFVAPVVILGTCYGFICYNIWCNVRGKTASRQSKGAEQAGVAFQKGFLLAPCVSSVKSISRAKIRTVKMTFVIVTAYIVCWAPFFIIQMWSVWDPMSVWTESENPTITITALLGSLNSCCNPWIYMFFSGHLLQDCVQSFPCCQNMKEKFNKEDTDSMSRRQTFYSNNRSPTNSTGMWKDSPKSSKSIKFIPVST

[4] = biological target: bombesin receptor of PC3 cells; experiment: 125I-ligand binding to PC3 cells, 37 C, with 12 µM MK886
Sequence of bombesin receptor of PC3 cells (P30550 whole entry): as the sequence (P30550 whole entry) above

[5] = biological target: bombesin receptor of PC3 cells; experiment: 125I-ligand binding to PC3 cells with 60 µM SKF-96365
[6] = biological target: bombesin receptor of PC3 cells; experiment: 125I-ligand binding to PC3 cells with 12 µM phloretin
[7] = biological target: bombesin receptor of PC3 cells; experiment: 125I-ligand binding to PC3 cells
[8] = biological target: bombesin receptor of PC3 cells; experiment: 125I-ligand binding to PC3 cells with 12 µM SKF-96365
[9] = biological target: bombesin receptor of PC3 cells; experiment: 125I-ligand binding to PC3 cells, 37 C, with 12 µM AA-861
[10] = biological target: bombesin receptor of PC3 cells; experiment: 125I-ligand binding to PC3 cells with 60 µM NIF
[11] = biological target: bombesin receptor of PC3 cells; experiment: 125I-ligand binding to PC3 cells, 37 C, with 60 µM AA-861
[12] = biological target: bombesin receptor of PC3 cells; experiment: 125I-ligand binding to PC3 cells, 37 C, with 60 µM MK886
[13] = biological target: bombesin receptor of PC3 cells; experiment: 125I-ligand binding to PC3 cells, 37 C, with 12 µM Rev-5901
[14] = biological target: bombesin receptor of PC3 cells; experiment: 125I-ligand binding to PC3 cells, 37 C, with 60 µM Rev-5901
[15] = biological target: bombesin receptor of PC3 cells; experiment: 125I-ligand binding to PC3 cells with 60 µM phloretin
[16] = biological target: bombesin receptor of PC3 cells
[17] = biological target: bombesin receptor of PC3 cells; experiment: 125I-ligand binding to PC3 cells with 12 µM NIF
[18] = biological target: bombesin receptor of PC3 cells; experiment: 125I-ligand binding to PC3 cells with 12 µM verapamil
[19] = biological target: bombesin receptor of PC3 cells; experiment: 125I-ligand binding to PC3 cells, 37 C, with 60 µM NDGA
[20] = biological target: bombesin receptor of PC3 cells; experiment: 125I-ligand binding to PC3 cells with 60 µM verapamil
[21] = biological target: bombesin receptor of PC3 cells; experiment: Scatchard analysis, PC3 cells
[22] = biological target: bombesin receptor of PC3 cells; experiment: 125I-ligand binding to PC3 cells, 37 C, with 12 µM NDGA
[23] = biological target: neurotensin receptor NTR1 of PC3 cells (human) (UniProt P30989); experiment: UV crosslinking to PC3 cells with phloretin, immunoprecipitation with Ab-NTR1
Sequence of neurotensin receptor NTR1 of PC3 cells (human) (P30989 whole entry): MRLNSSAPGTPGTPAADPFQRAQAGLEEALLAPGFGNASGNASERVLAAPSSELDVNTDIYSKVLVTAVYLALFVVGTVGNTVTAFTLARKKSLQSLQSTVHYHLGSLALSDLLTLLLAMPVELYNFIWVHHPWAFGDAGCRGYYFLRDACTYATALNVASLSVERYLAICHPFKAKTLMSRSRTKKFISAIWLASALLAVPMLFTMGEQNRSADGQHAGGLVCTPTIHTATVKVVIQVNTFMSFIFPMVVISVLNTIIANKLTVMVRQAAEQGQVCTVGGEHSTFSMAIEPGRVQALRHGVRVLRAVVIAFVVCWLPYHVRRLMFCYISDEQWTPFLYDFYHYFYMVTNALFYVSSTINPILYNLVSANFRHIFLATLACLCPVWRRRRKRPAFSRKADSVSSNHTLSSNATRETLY

[24] = biological target: neurotensin receptor NTR1 of PC3 cells (human) (UniProt P30989); experiment: UV crosslinking to PC3 cells with verapamil, immunoprecipitation with Ab-NTR1
[25] = biological target: neurotensin receptor NTR1 of PC3 cells (human) (UniProt P30989); experiment: UV crosslinking to PC3 cells with 50 µM MK886, immunoprecipitation with antiserum to NTR1
[26] = biological target: neurotensin receptor NTR1 of PC3 cells (human) (UniProt P30989); experiment: UV crosslinking to PC3 cells with NIF, immunoprecipitation with Ab-NTR1
[27] = biological target: neurotensin receptor NTR1 of PC3 cells (human) (UniProt P30989); experiment: UV crosslinking to PC3 cells with 50 µM NDGA, immunoprecipitation with antiserum to NTR1
[28] = biological target: vasopressin (V1a) receptor of PC3 cells (UniProt P37288); experiment: 125I-ligand binding to PC3 cells, 37 C, with 12 µM MK886
Sequence of vasopressin (V1a) receptor of PC3 cells (P37288 whole entry): as the sequence (P37288 whole entry) above

[29] = biological target: vasopressin (V1a) receptor of PC3 cells (UniProt P37288); experiment: 125I-ligand binding to PC3 cells with 60 µM SKF-96365
[30] = biological target: vasopressin (V1a) receptor of PC3 cells (UniProt P37288); experiment: 125I-ligand binding to PC3 cells with 12 µM phloretin
[31] = biological target: vasopressin (V1a) receptor of PC3 cells (UniProt P37288); experiment: 125I-ligand binding to PC3 cells
[32] = biological target: vasopressin (V1a) receptor of PC3 cells (UniProt P37288); experiment: 125I-ligand binding to PC3 cells with 12 µM SKF-96365
[33] = biological target: vasopressin (V1a) receptor of PC3 cells (UniProt P37288); experiment: 125I-ligand binding to PC3 cells, 37 C, with 12 µM AA-861
[34] = biological target: vasopressin (V1a) receptor of PC3 cells (UniProt P37288); experiment: 125I-ligand binding to PC3 cells with 60 µM NIF
[35] = biological target: vasopressin (V1a) receptor of PC3 cells (UniProt P37288); experiment: 125I-ligand binding to PC3 cells, 37 C, with 60 µM AA-861
[36] = biological target: vasopressin (V1a) receptor of PC3 cells (UniProt P37288); experiment: 125I-HOLVA binding to PC3 cell membranes with 60 µM SKF-96365
[37] = biological target: vasopressin (V1a) receptor of PC3 cells (UniProt P37288); experiment: 125I-ligand binding to PC3 cells, 37 C, with 60 µM MK886
[38] = biological target: vasopressin (V1a) receptor of PC3 cells (UniProt P37288); experiment: 125I-ligand binding to PC3 cells, 37 C, with 12 µM Rev-5901
[39] = biological target: vasopressin (V1a) receptor of PC3 cells (UniProt P37288); experiment: 125I-ligand binding to PC3 cells, 37 C, with 60 µM Rev-5901
[40] = biological target: vasopressin (V1a) receptor of PC3 cells (UniProt P37288); experiment: 125I-ligand binding to PC3 cells with 60 µM phloretin
[41] = biological target: vasopressin (V1a) receptor of PC3 cells (UniProt P37288)
[42] = biological target: vasopressin (V1a) receptor of PC3 cells (UniProt P37288); experiment: 125I-ligand binding to PC3 cells with 12 µM NIF
[43] = biological target: vasopressin (V1a) receptor of PC3 cells (UniProt P37288); experiment: 125I-ligand binding to PC3 cells with 12 µM verapamil
[44] = biological target: vasopressin (V1a) receptor of PC3 cells (UniProt P37288); experiment: 125I-ligand binding to PC3 cells, 37 C, with 60 µM NDGA
[45] = biological target: vasopressin (V1a) receptor of PC3 cells (UniProt P37288); experiment: 125I-ligand binding to PC3 cells with 60 µM verapamil
[46] = biological target: vasopressin (V1a) receptor of PC3 cells (UniProt P37288); experiment: Scatchard analysis, PC3 cells
[47] = biological target: vasopressin (V1a) receptor of PC3 cells (UniProt P37288); experiment: 125I-HOLVA binding to PC3 cell membranes with 60 µM NIF
[48] = biological target: vasopressin (V1a) receptor of PC3 cells (UniProt P37288); experiment: 125I-ligand binding to PC3 cells, 37 C, with 12 µM NDGA
[49] = biological target: vasopressin (V1a) receptor of PC3 cells (UniProt P37288); experiment: 125I-HOLVA binding to PC3 cell membranes with 60 µM verapamil

T1 sequence (P30989 whole entry): as the sequence (P30989 whole entry) above

CC1=C(C)C(=O)C(CCCCC#CCCCC#CCO)=C(C)C1=O [AA861]
Specific NT-Binding (% control) (NTR1 [1]; 10 μM LOX pathway blocker): 107 ± 4 % control
Specific NT-Binding (% control) (NTR1 [1]; 25 μM LOX pathway blocker): 109 ± 4 % control
Specific NT-Binding (% control) (NTR1 [1]; 75 μM LOX pathway blocker): 110 ± 5 % control
IC50 (5-LOX): 100 to 2000 nM
Specific Binding (% control) of ^125I-[Nle14]-bombesin (bombesin receptor; 12 μM LOX blocker): 112 ± 4 % control
Specific Binding (% control) of ^125I-[Nle14]-bombesin (bombesin receptor; 60 μM LOX blocker): 135 ± 6 % control

CCNC(=O)[C@H]1O[C@@H](n2cnc3c(N)nc(NCCc4ccc(CCC(=O)O)cc4)nc32)[C@H](O)[C@@H]1O [CGS21683]
IC50 (5-LOX): 10 to 1000 nM
NT Binding Efficacy % increase (NTR1 [2]): 228 % increase

CCCCCC#CCC#CCC#CCC#CCCCC(=O)O [ETYA, 5,8,11,14-eicosatetraynoic acid]
IC50 (5-LOX): 6000 to 50000 nM

CCOc1ccc(C[C@@H](NC(=O)Cc2ccccc2)C(=O)N[C@@H](Cc2ccccc2)C(=O)N[C@@H](CCC(N)=O)C(=O)N[C@@H](CC(N)=O)C(=O)N[C@@H](CCCCN)C(=O)N2CCC[C@H]2C(=O)N[C@@H](CCCNC(=N)N)C(N)=O)cc1 [^125I-HOLVA, des-Gly-[Phaa1, D-Tyr(Et)2, Lys6, Arg8]-vasopressin] (PhAc-[dY](Et)FQNKPR-NH2; N-terminus and C-terminus assumed)
Specific Binding (% of total) ([3]; 10^5 cpm ^125I-ligand): 77 % of total
Bmax ([3]; Scatchard analysis): 156 ± 12 fmol/mg

[Tyr^4, Nle^14]-bombesin (peptide)
Specific Binding (% control) [4]: 106 % control
Specific Binding (% control) [5]: 106 % control
Specific Binding (% control) [6]: 104 % control
Specific Binding (% of total) [7]: 95 % of total
Specific Binding (% control) [8]: 99 % control
Specific Binding (% control) [9]: 112 % control
Specific Binding (% control) [10]: 119 % control
Specific Binding (% control) [11]: 135 % control
Specific Binding (% control) [12]: 125 % control
Specific Binding (% control) [13]: 107 % control
Specific Binding (% control) [14]: 119 % control
Specific Binding (% control) [15]: 111 % control
Ki [16]: 0.6 nM
Specific Binding (% control) [17]: 108 % control
Specific Binding (% control) [18]: 104 % control
Specific Binding (% control) [19]: 127 % control
Specific Binding (% control) [20]: 104 % control
Bmax [21]: 1020 fmol/mg
Specific Binding (% control) [22]: 110 % control

^125I-[4-azido-Phe^6]-NT (peptide)
fold increase in radioactivity associated with NTR1 [23]: 1.8 fold
fold increase in radioactivity associated with NTR1 [24]: 1.5 fold
fold increase in radioactivity associated with NTR1 [25]: 2.7 fold
fold increase in radioactivity associated with NTR1 [26]: 2.8 fold
fold increase in radioactivity associated with NTR1 [27]: 2.6 fold

des-Gly-[Phaa1, D-Tyr(Et)2, Lys6, Arg8]-vasopressin (HOLVA) (peptide)
Specific Binding (% control) [28]: 93 % control
Specific Binding (% control) [29]: 50 % control
Specific Binding (% control) [30]: 92 % control
Specific Binding (% of total) [31]: 77 % of total
Specific Binding (% control) [32]: 80 % control
Specific Binding (% control) [33]: 87 % control
Specific Binding (% control) [34]: 59 % control
Specific Binding (% control) [35]: 57 % control
Binding (% control) [36]: 110 % control
Specific Binding (% control) [37]: 67 % control
Specific Binding (% control) [38]: 68 % control
Specific Binding (% control) [39]: 42 % control
Specific Binding (% control) [40]: 73 % control
Ki [41]: 0.5 nM
Specific Binding (% control) [42]: 95 % control
Specific Binding (% control) [43]: 85 % control
Specific Binding (% control) [44]: 50 % control
Specific Binding (% control) [45]: 58 % control
Bmax [46]: 156 fmol/mg
Binding (% control) [47]: 90 % control
Specific Binding (% control) [48]: 84 % control
Binding (% control) [49]: 91 % control

From patent publication US20060062729A1, “Enhanced ligand binding to neurotensin receptors” (priority 2004, published 2006)
